± gives the standard deviation.
Test: protein stability index of a GFP-peptide fusion (GPS, HEK-293T) (PSI 1-6); higher = more stable
[1] = treatment: DMSO, c terminus: a fixed tail appended
[2] = treatment: MLN4924 1 uM, 8 h, c terminus: a fixed tail appended
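Further: 24-mer peptide tiles fused after GFP, lentivirally expressed, FACS-sorted into six equal bins by GFP/DsRed ratio, decoded by Illumina sequencing, PSI is the read-weighted mean bin number.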

Sequence	protein stability index [1]	protein stability index [2]	protein stability index (treatment: DMSO, c terminus: native)	protein stability index (treatment: MLN4924 1 uM, 8 h, c terminus: native)
MTDQQAEARSYLSEEMIAEFKAAF [TNNC2]	4.22 ± 0.13	4.25 ± 0.16	–	–
LEPMKSRAPQLHLEYRFYEQLGSG [CSNK1G3]	2.91 ± 0.2	2.63 ± 0.47	–	–
VAQRSGCEERWLVIDRKVYNISEF [FADS1]	2.11 ± 0.084	2.12 ± 0.32	–	–
VAQTGILWLLMNNCFLNLSPRKP [GAGE1]	–	–	2.71 ± 0.17	2.82 ± 1.2
GPCEGPSKEDKDLDSSEGSSQEDE [SPANXN3]	5.68 ± 0.14	5.68 ± 0.14	–	–
STYYWPRPRRYVQPPEMIGPMRPE [GAGE1]	2.68 ± 0.33	3.01 ± 0.31	–	–
MDADEGQDMSQVSGKESPPVSDTP [IKZF1]	5.35 ± 0.28	5.28 ± 0.6	–	–
IEDEDQILENSSQKENVFKCDSLK [FAN1]	5.07 ± 0.1	5.01 ± 0.35	–	–
RALARNLIFGLITCLTGVLGVGLG [SPNS1]	2.28 ± 0.32	2.92 ± 0.81	–	–
IKCFHEIITIGYNVYHSYDLPWFR [CDS2]	2.21 ± 0.12	2.31 ± 0.33	–	–
DVRLDREHRVAGIFPRLSFKDKST [CLPTM1]	3.79 ± 0.063	4 ± 0.089	–	–
NDALSCEYECRRRMLMKRLDVTVQ [FAM98B]	2.61 ± 0.24	2.78 ± 0.38	–	–
LEGFQAQGHPPSLFPPKAKSNQPK [ATE1]	5.16 ± 0.19	5.19 ± 0.18	–	–
QLHAKIDAAEEEKYDMEVRVQKTS [TNNI2]	5.27 ± 0.23	5.22 ± 0.24	–	–
STSYSPLASLPLKADTKGFCNISL [PLAGL1]	2.38 ± 0.2	2.27 ± 0.2	–	–
LEDLERELDEPQHEMVAHRHRQEV [ZSCAN9]	5.56 ± 0.12	5.47 ± 0.072	–	–
TEVITASEFHPHHCNLFVYSSSKG [PPP2R2C]	2.73 ± 0.24	2.97 ± 0.29	–	–
TNFHGVCMFCNEEFLGNRSVILNH [ZNF277]	2.08 ± 0.33	2.11 ± 0.39	–	–
TILLSYGVILHSLKTQSLEGKRKA [OR4A15]	2.5 ± 0.082	2.41 ± 0.55	–	–
PVTKPLFPSAGQAQAAVQGPVGTD [ZNF207]	5.15 ± 0.17	5.05 ± 0.11	–	–
MELSWGQSPGQPVQGGSEAWGPGT [TEX19]	3.86 ± 0.53	4.06 ± 0.36	–	–
NKHLCYVFDSEKCVSIPDVVGWFV [GULP1]	2.76 ± 0.88	2.13 ± 0.51	–	–
IRVPSVPPVPCVPSVPCTPAPQVG [KRT36]	3.45 ± 0.27	3.57 ± 0.25	–	–

Sequence	protein stability index [1]	protein stability index [2]	protein stability index (treatment: DMSO, c terminus: native)	protein stability index (treatment: MLN4924 1 uM, 8 h, c terminus: native)
VKVPTTLAEYCIKTKVPSNDNSSD [UBE2R2]	4.41 ± 0.21	4.63 ± 0.17	–	–
VKKCIFLLFINHRLVESTSLRKAI [MLH1]	3.14 ± 0.47	2.97 ± 0.73	–	–
PKPCAGNQGTQITVEDLFYNIATR [MLH1]	2.85 ± 0.32	2.97 ± 0.41	–	–
ILDICEDNVPDPKDVKERFSGSLV [TMEM175]	3.83 ± 0.19	4.06 ± 0.13	–	–
RKLRKTVNGDGSRENGNNSSDKVR [PHTF1]	4.96 ± 0.088	4.99 ± 0.18	–	–
QAREKELLELQSQQACTHTKETEQ [CCDC89]	5.55 ± 0.21	5.61 ± 0.17	–	–
PIFVNSPTLDAPGGRALVVRKVPP [SMAD6]	3.23 ± 0.059	3.34 ± 0.29	–	–
QELDIKKNERLWLLDDSKTWWRVR [NCK2]	2.37 ± 0.14	2.61 ± 0.28	–	–
MLSPQRVAAAASRGADDAMESSKP [ATL3]	5.21 ± 0.22	5.25 ± 0.25	–	–
AFPAAVSSMKKFCRPLLPSCTTRL [PSD2]	2.33 ± 0.27	2.32 ± 0.093	–	–
VVQDSVNISGHTNTNTLKVPECRL [SPOPL]	3.34 ± 0.25	3.56 ± 0.43	–	–
LAPAGQTSEESRPRLSQLSVTDVT [TNXB]	4.64 ± 0.68	5.13 ± 0.31	–	–
MAGAPDERRRGPAAGEQLQQQHVS [ATP23]	5.058 ± 0.01	4.57 ± 0.25	–	–
AEKRQIGDQEGPRPARSTLDELLG [FBF1]	4.64 ± 0.22	4.93 ± 0.1	–	–
AIDMFIIGATFTDWFTSYVKNVVS [FBXO3]	2.82 ± 0.35	–	–	–
QDLLKERQKDLKFLSEEEYWKLQI [CCNC]	3.45 ± 0.13	3.67 ± 0.15	–	–
LPNKQVLGLSKLARIVEIYSRRLQ [GCH1]	2.31 ± 0.5	2.08 ± 0.53	–	–
KYDPHTGHWTNVTPMATKRSGAGV [KLHL12]	3.69 ± 0.47	3.78 ± 0.17	–	–
PAYKVSGDKNEEQVLNAIEAYTEH [ZER1]	5.06 ± 0.17	5.02 ± 0.17	–	–
GSTAITPGTPPSYSSRTPGTPGTP [MAP2]	4.87 ± 0.2	4.98 ± 0.11	–	–
GMLDVADESLTDLEAQPYEAVFLR [P3H4]	4.02 ± 0.47	4.19 ± 0.21	–	–
LLLGTAYSFYLFHPLAYGMVGPLA [POMT2]	3.32 ± 0.18	3.18 ± 0.59	–	–
QRSVSDVASGSTPAPALCCAPYDS [IRX6]	4.8 ± 0.34	4.94 ± 0.085	–	–

Sequence	protein stability index [1]	protein stability index [2]	protein stability index (treatment: DMSO, c terminus: native)	protein stability index (treatment: MLN4924 1 uM, 8 h, c terminus: native)
DDEGWLHSGDLGQLDGLGFLYVTG [ACSBG2]	2.66 ± 0.33	2.54 ± 0.42	–	–
RQFEFYLEEMILPLMVASAQSGER [BTBD10]	2.58 ± 0.64	3.2 ± 0.43	–	–
HTPGTPKSAILVPSEKKVAIIRTP [MAP2]	3.96 ± 0.057	4.02 ± 0.2	–	–
SRSSLMPLRNDVDKRGETTSASLL [SLC2A12]	4.55 ± 0.15	4.56 ± 0.11	–	–
ATGLTSGLLSLLLPETLNSPLLET [SLC22A15]	2.2 ± 0.46	2.1 ± 0.23	–	–
SLARNPAPGVLTNKRKTYTESYIA [ZC2HC1A]	3.22 ± 0.21	3.23 ± 0.41	–	–
LELVINYQQLCIYWTKYYDFKNPI [OAS1]	3.22 ± 0.24	3.33 ± 0.18	–	–
EVIPYTPAMQRYVKRLHEVGRTEP [HMOX1]	3.18 ± 0.21	3.41 ± 0.25	–	–
IPGHGGIMDRFDCQYLMATFVNVY [CDS2]	3 ± 0.46	2.54 ± 0.51	–	–
QVPYPPRQLLRDFQSRLPYQYLHY [P3H4]	2.45 ± 0.072	2.24 ± 0.35	–	–
PILRLLPQGISPVSQHWATWALYN [ZER1]	2.78 ± 0.37	2.95 ± 0.34	–	–
ILIREAQNQPIDKARKTYERLVAQ [CSTF3]	2.83 ± 0.2	2.82 ± 0.11	–	–
FVYENAKEGARNIRTSERVTLIVD [BTBD10]	2.55 ± 0.6	3.06 ± 0.5	–	–
QFPYVEFTGRDSITCLTCQGTGYI [TMEM106C]	2.93 ± 0.47	3.09 ± 0.52	–	–
MGSGTSTQHHFAFQNAERAFKAAA [PPEF2]	3.46 ± 0.43	2.98 ± 0.25	–	–
IYVHILKDTRMAEEYCHKHYDRNK [VPS39]	2.19 ± 0.39	2 ± 0.28	–	–
LLAVPNIILTNQSVREVTQIKCIE [P2RY14]	2.53 ± 0.29	2.35 ± 0.21	–	–
LRSPRKFGVAGRSCQEVLRKGCLR [DFFB]	2.9 ± 0.19	2.74 ± 0.35	–	–
AALHIDLCKATSPADALQYLLQFA [INTS4]	2.36 ± 0.51	2.29 ± 0.15	–	–
GAKDSELASQNKPLWQCYLGRFND [PDS5B]	2.51 ± 0.37	3.25 ± 0.3	–	–
HSYCRMFLQRGADTNLGRLEDGQT [ASB7]	2.73 ± 0.44	2.85 ± 0.48	–	–
KPAEYGYVSLGRLGAAKGALHPGC [CEBPB]	2.94 ± 0.11	3.06 ± 0.32	–	–
RGLEPGKGRHHRGRGGEPRAYFMS [CHGB]	4.36 ± 0.092	4.24 ± 0.13	–	–

Sequence	protein stability index [1]	protein stability index [2]	protein stability index (treatment: DMSO, c terminus: native)	protein stability index (treatment: MLN4924 1 uM, 8 h, c terminus: native)
LGGVKKSATLRSFEGLMGTIKSKV [TPD52L3]	2.64 ± 0.3	2.54 ± 0.26	–	–
EEEMRSHYVAQTGILWLLMNNCFL [GAGE1]	3.15 ± 0.36	3.2 ± 0.35	–	–
FLKEYFPIEVVTEGLLNTYQELLG [NLN]	2.44 ± 0.51	2.52 ± 0.55	–	–
GARPVSSAASVYAGAGGSGSRISV [KRT18]	3.66 ± 0.34	3.75 ± 0.19	–	–
TPLLIAARYGHLDVVEYLVDRCGA [FEM1A]	2.05 ± 0.27	2.18 ± 0.15	–	–
SRMKERAIDLNKKGKDNKHPMYRR [ZMYND11]	4.12 ± 0.2	4.08 ± 0.46	–	–
FFFDRNPGAFGTILTFLRAGKLRL [KCNG1]	2.48 ± 1.3	2.07 ± 0.11	–	–
QLHPPRWYSRLQACQWGGNFLAFS	2.11 ± 0.45	2.26 ± 0.088	–	–
GLSPRVIRVWFQNKRCKDKKKSIL [ISL2]	2.13 ± 0.45	2.36 ± 0.085	–	–
LASSLSPSQDERMRSPQNLHSQED [NOL4L]	5.37 ± 0.38	5.54 ± 0.12	–	–
CDFKIDAGDRFLEALGFSWHDTCF [PDLIM7]	2.6 ± 0.5	2.47 ± 0.46	–	–
ESRRQQILREFEELHRRLDEEQQV [TRIM39]	4.87 ± 0.23	4.8 ± 0.097	–	–
MTLPLLRQTSTKAVQHFYNIKLEG [ESRRG]	2.48 ± 0.18	2.44 ± 0.26	–	–
AMETDGPLFEDVQMLRKTVKDEAH [PPP2R5C]	5.24 ± 0.49	5.12 ± 0.39	–	–
DKLSQKSSSSKLSRSPLKIVKKPK [EPB41L3]	4.3 ± 0.66	4.79 ± 0.23	–	–
QATCNVHKSAFNDWFSGHLNFQIE [FADS1]	2.44 ± 0.28	2.48 ± 0.2	–	–
HHVADAYTSSQKVSPIQIDGAGRT [TOR1AIP2]	3.53 ± 0.21	3.74 ± 0.46	–	–
ARQLQLSDPQTVAGAFGYFQQDTK [LPCAT4]	3.82 ± 0.41	3.9 ± 0.16	–	–
SPLLETFSDLQVYSYRRLGEEALS [SLC22A15]	2.44 ± 0.31	2.27 ± 0.23	–	–
TPRRVFANAHTYHINSISVNSDYE [PPP2R2B]	3.35 ± 0.34	3.12 ± 0.42	–	–

Reference: the supplement of paper PMC10567573
